Assay in all cases: ELONA; ELONA: 160 ng protein coated in PBS; biotinylated aptamer 45 min at RT; wash in PBS pH 7.4, 1 mM MgCl2, 5 mM imidazole, 0.05% Tween 20; streptavidin-HRP/TMB, hyperbolic fit
For data set [1], the target named is full-length human sclerostin (FL hSOST) (human, UniProt Q9BQB4 25-213). The following applies: protein: recombinant; tags: His6; label: biotin.
In another data set the target is T1, sclerostin loop2 (human, UniProt Q9BQB4 110-133).
T1 chain: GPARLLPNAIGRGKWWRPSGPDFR
The following applies: label: biotin.

For a further data set, the target named is T2, sclerostin loop3 (WT) (human, UniProt Q9BQB4 135-164).
T2 chain: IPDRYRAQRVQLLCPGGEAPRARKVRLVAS
Conditions: label: biotin.

A further data set concerns the target T3, sclerostin loop1 (human, UniProt Q9BQB4 81-104).
T3 chain: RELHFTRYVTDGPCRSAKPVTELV
Conditions: label: biotin.

Another data set addresses T4, sclerostin loop3m (human, UniProt Q9BQB4 135-164, R138A;Y139A;R140A;Q142A;R143A;V144A;G151A;E152A;R157A;K158A;V159A).
T4 chain: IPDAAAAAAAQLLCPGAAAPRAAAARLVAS
Conditions: label: biotin.

Chain of full-length human sclerostin (FL hSOST) (Q9BQB4 25-213): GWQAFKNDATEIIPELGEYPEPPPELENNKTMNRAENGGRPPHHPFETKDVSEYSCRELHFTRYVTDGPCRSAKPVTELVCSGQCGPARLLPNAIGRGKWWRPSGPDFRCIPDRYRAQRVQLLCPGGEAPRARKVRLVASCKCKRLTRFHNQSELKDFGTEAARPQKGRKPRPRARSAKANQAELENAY

For CGGGGTGTGGGTAAATCGTTAGAAAGATTAAACAGCTGCC (ssDNA) [aptscl56m], the binding result in data set [1] was “no binding”. One may read the Kd as the free concentration of one partner at which half of the binding sites on the other are occupied at equilibrium, for simple one-to-one binding. For CGGGGTGTGGGTTCGTCGTTAGCTTGATTTGGCAGCTGCC (ssDNA) [aptscl56], the binding result with sclerostin loop2 is “no binding”; with sclerostin loop3 (WT), “binds”; with sclerostin loop1, “no binding”; in the data set with sclerostin loop3m it was “binds”. Moreover, the Kd in data set [1] is 43.1 nM. GGGTGGATTAAGGGGGCCCCGTCTGTAGGCGATTGGCGAA (ssDNA) [aptamer candidate 46]: in data set [1], the Kd came out at 45.6 nM. For the molecule TGGGGGTAGGGGGTCCTTGGCTACGGTGATTCGGATGTGA (ssDNA) [aptamer candidate 51], the Kd in data set [1] stood at 62.2 nM.

TGGAAGGGTGGGGGCGGGGGGTCCTCGCCTCGAACGTACG (ssDNA) [aptamer candidate 6]: the Kd in data set [1] was 4.2 nM. On to CCCAGACGAGACACCTCATGCTTTTCCCCGGGGGAGGGGTAT (ssDNA) [aptamer candidate 132], for which the dissociation constant (Kd) in data set [1] came out at 42.2 nM. Turning to TGGGGGTAGGGGGACCCTGGCTAGTTAGTCACCGTTTCGA (ssDNA) [aptamer candidate 9], in data set [1], the equilibrium dissociation constant (Kd) amounted to 3.4 nM.

In the case of GAGGGGGCCAACTATGCTTAGTGGGGGGGTTGACCGTATC (ssDNA) [aptamer candidate 15], the Kd in data set [1] was found to be 4 nM.

Values taken from paper PMC9307627, “Targeting loop3 of sclerostin preserves its cardiovascular protective action and promotes bone formation”.
